Assay results published in patent publication US20090324609A1.

Molecular target: PD-1 receptor on T cells of anti-CD3-activated Balb/c splenocytes (mouse) (UniProt Q02242)
Assay: cell-based or functional assay

Sequence of UniProt Q02242 (Q02242 25-288): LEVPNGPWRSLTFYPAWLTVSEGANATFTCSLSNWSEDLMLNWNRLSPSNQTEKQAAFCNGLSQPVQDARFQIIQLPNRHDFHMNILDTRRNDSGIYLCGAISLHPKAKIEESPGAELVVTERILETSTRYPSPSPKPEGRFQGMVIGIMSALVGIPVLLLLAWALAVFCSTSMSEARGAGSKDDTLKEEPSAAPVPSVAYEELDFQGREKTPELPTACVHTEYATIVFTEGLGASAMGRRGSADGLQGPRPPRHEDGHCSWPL

PD-L1 (Programmed death ligand 1) on the surface of wildtype C57BL/6 mouse mesenchymal stem cells (from UniProt Q9EP73 19-290)
Fold suppression of T cell proliferation by wildtype B6 MSCs (CFSE, anti-CD3-activated Balb/c splenocytes): > 5 fold | Fold suppression of T cell proliferation when PD-L1 is absent from the MSCs (B6 PD-L1-/- MSCs; CFSE, anti-CD3-activated Balb/c splenocytes): < 2 fold | T cell proliferation (CFSE-labelled Balb/c splenocytes activated with anti-CD3, flow cytometry); percent proliferating with wildtype B6 MSCs, against 87% without MSCs: 16%
